From US20060252692A1, “Inhibitors for use in hemostasis” (ZymoGenetics, Inc., priority 2002, published 2006)

Legend:
A7-BaF-3 cells = experiment: Proliferation assay on zsig37-coated plates, A7-BaF-3; type: cell-based; settings: 5,000 cells/well
Method: A second assay was performed with TF-1, DA-1, an IL-3 dependent cell line derived from the lymph node of a mouse with a B-cell lymphoma by outgrowth in IL-3 media, pre-B (p53−/− mouse marrow cells, IL-7 dependent, B220+, Thy1 low, Sca-1+), and A7BaF-3 cell lines as described above at 5,000 cells/well. BHK cells were also plated at 500 cells/well.

[1] = system: carotid artery crush injury, vascular occlusion; experiment: Modified rabbit carotid artery crush injury model; type: in vivo, New Zealand White rabbits; settings: 2-13.5 μg/kg
Method: Zsig37 was administered in a modified rabbit carotid artery injury model (Folts et al., Circulation 79:116 (1989), and Golino et al., Thrombosis and Haemostasis 67:302 (1992)) to determine the degree of protection offered in preventing vascular occlusion following a crush injury.
Thirty-four male New Zealand White rabbits, approximately three to six months old (R&R Rabbitry; Stanwood, Wash.) were divided into two groups. Fifteen rabbits received doses of zsig37 ranging from 2-13.5 μg/kg and 19 control rabbits were injected with PBS or equivalent amounts of PBS or zsig39, another adipocyte complement related protein (WO99/10492). The rabbits were anesthetized with ketamine (50 mg/kg, IM) and maintained on halothane inhalation anesthesia for the duration of the study. The hair was shaved from the ears and neck and an angiocatheter was placed in the marginal ear vein for IV support. A midline incision was made in the neck and the carotid artery was accessed. Approximately 5 cm of the common carotid artery proximal to the internal/external bifurcation was exposed via blunt dissection away from the surrounding tissue and any visible side branches were cauterized. A flow probe (Transonic Systems, Inc.; Ithaca N.Y.) was placed distal to the anticipated injury site and a baseline blood flow was established. A 2.5-3.0 cm section of the vessel was then isolated from circulation using atraumatic vascular clamps. Following removal of the blood from the vessel segment, 0.4 ml of zsig37 in 0.9% sodium chloride or […] 0.9% sodium chloride as a control, was injected into the empty vessel segment using a 30 G needle. The vessel was left undisturbed for a five-minute pre-injury treatment. A 1.0 cm crush injury was then inflicted into the center of the vessel segment using a guarded hemostat and left undisturbed for 10 minutes. The vessel clamps were then removed and blood flow reestablished. Blood flow was monitored continuously for 60 minutes after which time the rabbits were euthanized and the vessel excised for histological analysis.

[2] = system: atherosclerotic rabbit femoral/iliac artery crush injury; experiment: Atherosclerotic Folts model, blood flow; type: in vivo, New Zealand White rabbits; settings: 1 mg/kg bolus, n=8, vs 1 mg/kg BSA; p=0.0305
From the text: In the present experiment the standard Folts model was modified to study restenosis in rabbits. In this design, New Zealand White rabbits that normally are not prone to atherosclerosis were fed an atherogenic diet (e.g., 2% cholesterol and 6% coconut oil) for two weeks, underwent balloon denudation of an artery segment and then were continually fed the atherogenic diet. Within three weeks, atherosclerotic plaque had accumulated in the balloon-injured area. At this time, the animal was prepped for surgery and the atherosclerotic vessel was injured via a crush procedure and a Folts model study was performed.
Eleven male New Zealand White rabbits weighing 2.0-2.5 kg were used in this study. Atherosclerosis was developed in the right iliac and femoral arteries following a protocol described by Faxon et al., Am J. Cardiol., 1984, 53:72C-76C; and Faxon et al., Atherosclerosis. 1982, 2:125-133), with the following modifications. […]
Animals were administered 100 U/kg heparin. […] The flow rate was monitored and the vessel tapped to release the thrombus when the flow rate approached 0.7 ml/min. […] Blood flow through the injured vessel was monitored for 60 minutes post bolus infusion. […] Blood pressure was monitored throughout and, prior to termination, blood samples for coagulation factors were collected. […]
Statistical Analysis. All values are expressed as mean±SEM. […]

B1: zsig37: adipocyte complement related protein homolog, polypeptide of SEQ ID NO:2, inhibits collagen-mediated platelet activation and the complement pathway (protein, listed as Homo sapiens)
chain: MGSRGQGLLLAYCLLLAFASGLVLSRVPHVQGEQQEWEGTEELPSPPDHAERAEEQHEKYRPSQDQGLPASRCLRCCDPGTSMYPATAVPQINITILKGEKGDRGDRGLQGKYGKTGSAGARGHTGPKGQKGSMGAPGERCKSHYAAFSVGRKKPMHSNHYYQTVIFDTEFVNLYDHFNMFTGKFYCYVPGLYFFSLNVHTWNQKETYLHIMKNEEEVVILFAQVGDRSIMQSQSLMLELREQDQVWVRLYKGERENAIFSEELDTYITFSGYLVKHATEP
A7-BaF-3 cells
  growth of A7-BaF-3 cells: enhanced the growth
[1]
  dose dependency of time patent: No dose dependency was seen
[1]; combined zsig37 treated groups, 60 minutes, standard error ±10.3%, controls 13.5%
  mean percent time patent: 37.2%
[1]; unpaired t-test P=0.019
  time patent compared to controls (meta analysis of all doses): significant increase in time patent
[2]
  blood flow in final 30 minutes: continuously patent
